Measured values published in PMC5927468.

Target: sorting nexin 9 (SNX9) (UniProt Q9Y5X1)
Assay: anti-eGFP nanobody pulldown, SNX9 immunoblot
Conditions: reference: Dyn1a wild type-eGFP; sites S774,S778

dynamin-1 (Dyn1a) (from UniProt Q05193) Dyn1a S774/8A-eGFP
fold change: 3.6
